Results reported in the supplement of paper PMC7877785.
± gives the uncertainty stated by the source.

Assay: self-splicing fitness, log relative to wild type (ln ratio); higher = more splicing; Tetrahymena group I intron in knt gene, E. coli kanamycin selection, DiMSum; sequences stand for … in CUCUCU…GGAGGGAAAAGUUAUCAGGCAUGCACCUGGUAGCUAGUCUUUAAACCAAUAGAUUGCAUCGGUUUAAAAGGCAAGACCGUCAAAUUGCGGGAAAGGGGUCAACAGCCGUUCAGUACCAAGUCUCAGGGGAAACUUUGAGAUGGCCUUGCAAAGGGUAUGGUAAUAAGCUGACGGACAUGGUCCUAACCACGCAGCCAAGUCCUAAGUCAACAGAUCUUCUGUUGAUAUGGAUGCAGUUCACAGACUAAAUGUCGGUCGGGGAAGAUGUAUUCUUCUCAUAAGAUAUAGUCGGACCUCUCCUUAAUGGGAGCUAGCGGAUGAAGUGAUGCAACACUGGAGCCGCUGGGAACUAAUUUGUAUGCGAAAGUAUAUUGAUUAGUUUUGGAGUACUCGUGGUCG
Method in brief: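 DiMSum derived fitness as the error-weighted combination of fold changes across replicates, kanamycin versus no kanamycin, normalised to wild type. E. coli BL21(DE3) held the library, which randomised all eight P1ex-region intron nucleotides within the knt kanamycin-resistance gene on pET-22b(+). Six replicate transformations grew overnight at 37°C or 30°C on LB agar with or without 25 μg/mL kanamycin, also containing 100 μg/mL carbenicillin, 50 μM IPTG and 0.2% rhamnose, and pooled colonies were amplicon-sequenced on an Illumina HiSeq 2500.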

| Sequence | self-splicing fitness (ln) (30 °C) | self-splicing fitness (ln) (37 °C) |
| --- | --- | --- |
| UCCAAGCAAUAUUACGUCCG | -2.76 ± 0.21 | -1.81 ± 0.19 |
| UCCAAGCAAUAUUACGUGGA | -2.9 ± 0.17 | -3.47 ± 0.29 |
| UCCAAGCAAUAUUACGUUAU | -2.78 ± 0.18 | -3.5 ± 0.37 |
| UCCCAGCAAUAUUACGAACC | -1.58 ± 0.2 | -2.08 ± 0.46 |
| UCCCAGCAAUAUUACGACAU | -3.293 ± 0.018 | -2.13 ± 0.035 |
| UCCCAGCAAUAUUACGACUA | -2.12 ± 0.15 | -1.15 ± 0.15 |
| UCCCAGCAAUAUUACGACUG | -3.58 ± 0.2 | -3.16 ± 0.32 |
| UCCCAGCAAUAUUACGAGUC | -3.66 ± 0.18 | -1.56 ± 0.17 |
| UCCCAGCAAUAUUACGAUAG | -3.91 ± 0.26 | -1.97 ± 0.23 |
| UCCCAGCAAUAUUACGAUUG | -3.56 ± 0.32 | -3.17 ± 0.4 |
| UCCCAGCAAUAUUACGCAGG | -3.88 ± 0.29 | -3.54 ± 0.26 |
| UCCCAGCAAUAUUACGCAUU | -2.93 ± 0.076 | -1.58 ± 0.082 |
| UCCCAGCAAUAUUACGCCUC | -3.11 ± 0.23 | -1.98 ± 0.29 |
| UCCCAGCAAUAUUACGCGGC | – | -0.462 ± 0.4 |
| UCCCAGCAAUAUUACGGAGU | -0.413 ± 0.053 | -0.504 ± 0.066 |
| UCCCAGCAAUAUUACGGAUA | -1.51 ± 0.093 | -0.799 ± 0.084 |
| UCCCAGCAAUAUUACGGGAA | -3.21 ± 0.2 | -1.83 ± 0.14 |
| UCCCAGCAAUAUUACGGGGU | -3.87 ± 0.27 | -2.86 ± 0.22 |
| UCCCAGCAAUAUUACGGGUG | -1.4 ± 0.06 | -0.507 ± 0.075 |
| UCCCAGCAAUAUUACGGUAG | -2.7 ± 0.12 | -1.45 ± 0.11 |
| UCCCAGCAAUAUUACGGUCC | -1.68 ± 0.14 | -1.26 ± 0.18 |
| UCCCAGCAAUAUUACGUAAC | -2.45 ± 0.11 | -1.61 ± 0.17 |

| Sequence | self-splicing fitness (ln) (30 °C) | self-splicing fitness (ln) (37 °C) |
| --- | --- | --- |
| UCCCAGCAAUAUUACGUAGU | -0.707 ± 0.046 | -0.458 ± 0.066 |
| UCCCAGCAAUAUUACGUGAU | -2.17 ± 0.076 | -1.52 ± 0.12 |
| UCCCAGCAAUAUUACGUGCC | -4.06 ± 0.23 | -2.32 ± 0.2 |
| UCCGAGCAAUAUUACGAAAC | -2.59 ± 0.27 | -1.62 ± 0.28 |
| UCCGAGCAAUAUUACGAAAU | -4.17 ± 0.34 | – |
| UCCGAGCAAUAUUACGAGGC | -3.1 ± 0.36 | -1.7 ± 0.39 |
| UCCGAGCAAUAUUACGAUCC | – | -0.617 ± 0.39 |
| UCCGAGCAAUAUUACGAUGG | -0.964 ± 0.097 | -0.212 ± 0.12 |
| UCCGAGCAAUAUUACGCAGA | -3.65 ± 0.43 | -2.49 ± 0.23 |
| UCCGAGCAAUAUUACGCAUA | -2.24 ± 0.42 | -2.26 ± 0.35 |
| UCCGAGCAAUAUUACGCGGG | -3.02 ± 0.28 | -2.78 ± 0.38 |
| UCCGAGCAAUAUUACGCGUU | -3.39 ± 0.12 | -1.95 ± 0.13 |
| UCCGAGCAAUAUUACGCUGG | -3.33 ± 0.21 | -1.56 ± 0.19 |
| UCCGAGCAAUAUUACGGGGC | -4.28 ± 0.23 | -2.8 ± 0.17 |
| UCCGAGCAAUAUUACGGUGA | -0.746 ± 0.076 | -0.0617 ± 0.095 |
| UCCGAGCAAUAUUACGGUUC | -3.78 ± 0.39 | -3.02 ± 0.31 |
| UCCGAGCAAUAUUACGUACU | -3.69 ± 0.25 | -2.55 ± 0.34 |
| UCCGAGCAAUAUUACGUAUU | -1.95 ± 0.17 | -2.92 ± 0.43 |
| UCCGAGCAAUAUUACGUCUA | -3.11 ± 0.23 | -3 ± 0.24 |
| UCCGAGCAAUAUUACGUGUG | -3.13 ± 0.11 | -0.996 ± 0.088 |
| UCCGAGCAAUAUUACGUUAA | -2.36 ± 0.21 | -2.57 ± 0.28 |
